Three variants from IntAct's records for PubMed 14679199 can be followed below.

B1: SH3 and multiple ankyrin repeat domains protein 2 (Rattus norvegicus (Rat)), Q9QX74-4 (parent)
chain: MMSVPGGGAATVMMTGYNNGRYPRNSLYSDCIIEDKTVVLQKKDNEGFGFVLRGAKADTPIEEFTPTPAFPALQYLESVDEGGVAWQAGLRTGDFLIEVNNENVVKVGHRQVVNMIRQGGNHLVLKVVTVTRNLDPDDTARKKAPPPPKRAPTTALTLRSKSMTAELEELVDKASVRKKKDKPEEIVPASKPSRTAENVAIESRVATIKQRPTSRCFPAASDVNSVYERQGIAVMTPTVPGSPKGPFLGLPRGTMRRQKSIDSRIFLSGITEEERQFLAPPMLKFTRSLSMPDTSEDIPPPPQSVPPSPPPPSPTTYNCPRSPTPRVYGTIKPAFNQNPVAKVPPATRSDTVATMMREKGMFYRRELDRFSLDSEDVYSRSPAPQAAFRTKRGQMPENPYSEVGKIASKAVYVPAKPARRKGMLVKQSNVEDSPEKTCSIPIPTIIVKEPSTSSSGKSSQGSSMEIDPQATEPGQLRPDDSLTVSSPFAAAIAGAVRDREKRLEARRNSPAFLSTDLGDEDVGLGPPAPRMQPSKFPEEGGFGDEDETEQPLLPTPGAAPRELENHFLGGGEAGAQGEAGGPLSSTSKAKGPESGPAAALKSSSPASPENYVHPLTGRLLDPSSPLALALSARDRAMQESQQGHKGEAPKADLNKPLYIDTKMRPSVESGFPPVTRQNTRGPLRRQETENKYETDLSKDRRADDKKNMLINIVDTAQQKSAGLLMVHTVDIPVAGPPLEEEEDREDGDTKPDHSPSTVPEGVPKTEGALQISAAPEPAAAPGRTIVAAGSVEEAVILPFRIPPPPLASVDLDEDFLFTEPLPPPLEFANSFDIPDDRAASVPALADLVKQKKSDTPQPPSLNSSQPANSTDSKKPAGISNCLPSSFLPPPESFDAVTDSGIEEVDSRSSSDHHLETTSTISTVSSISTLSSEGGESMDTCTVYADGQAFVVDKPPVPPKPKMKPIVHKSNALYQDTLPEEDTDGFVIPPPAPPPPPGSAQAGVAKVIQPRTSKLWGDVTEVKSPILSGPKANVISELNSILQQMNRGKSVKPGEGLELPVGAKSANLAPRSPEVMSTVSGTRSTTVTFTVRPGTSQPITLQSRPPDYESRTSGPRRAPSPVVSPTELSKEILPTPPSAAAASPSPTLSDVFSLPSQSPAGDLFGLNPAGRSRSPSPSILQQPISNKPFTTKPVHLWTKPDVADWLESLNLGEHKETFMDNEIDGSHLPNLQKEDLIDLGVTRVGHRMNIERALKQLLDR

In this assay the parent is B1. Conditions: with cftr_mouse Cftr.
As for H109A, the “effect of a mutation on the interaction” value is on record as “disrupting interaction”.

For the variant H109Q, the “effect of a mutation on the interaction” value is reported as “with no effect”.

On to H109R, for which the “effect of a mutation on the interaction” value is recorded as “disrupting interaction”.
